Patent publication US20250327097A1, “ORGANISMS PRODUCING LESS CROTONIC ACID” (Global Bioenergies, priority 2021, published 2025)
Changes are numbered by the printed parent chain. Names may count otherwise.

B1: I283T-P284D-N287P-S322T-P368S-N388M-E421V-C430N-L432F-L434W-S436N-dG462 (protein)
chain: MFLKSLREQINLLKRQGDLRIINRPVDSYLEAAAIIRRSTETKAPVPLMTNIKGYPGCSIVGGLAALSSNPEYPLSRVAMSLGLSTTASAQSIVQYLIDGLKKTPYLPVEIDSNSAPCKQNILRGEDASLAHFPIPQVHQHDGNRYVNTWGVFIVESPDGQWCNWSIQRVQYLNDRQMIALVFPSQHISDIWEEWVKIGKPMPYALVQGCEPIVPYIAGLPLLERNVNEAEYIGALYGKGIEVVKCETHDLRVPASSEVVIEGYFAITREGVEGPFGEFAGYTDNEPSLQPILSITAISWQDDPIWPVVAEGKPVDEYHTCTGIGDAAAIQNVLLTANLPVSFVWVPLYSACHLMIVSINRHWRQTHSDLTSEQLTKKVGDVIHQTRMSIKLPKIVVLDDDVDPADTESLLWALATRIHPVRKRYFYESNIFPWLNCYSEEERHNRKGKRVIIDALLPENHGAISSFDYAYPDDIKQRVLMHWETDFSHD
B2: I283T-P284D-N287P-S322T-N388M-C430N-L432F-L434W-S436N-H461Y-dG462 (protein)
chain: B1 chain with S368P, V421E, H461Y
B3: I283T-P284D-N287P-S322T-N388M-C430N-L432F-L434W-S436N-H461V-dG462 (protein)
chain: B1 chain with S368P, V421E, H461V
B4: I283T-P284D-N287P-S322T-N388M-C430N-L432F-L434W-S436N-dG462-A463I (protein)
chain: B1 chain with S368P, V421E, A463I
B5: I283T-P284D-N287P-S322T-N388M-C430N-L432F-L434W-S436N-H461V-dG462-S465V (protein)
chain: B1 chain with S368P, V421E, H461V, S465V
B6: I283T-P284D-N287P-S322T-N388M-C430N-L432F-L434W-S436N-H461V-dG462-A463T (protein)
chain: B1 chain with S368P, V421E, H461V, A463T
B7: I283T-P284D-N287P-S322T-N388M-E421V-R422F-C430N-L432F-L434W-S436N-dG462 (protein)
chain: B1 chain with S368P, R422F
B8: I283T-P284D-N287P-S322T-N388M-C430N-L432F-L434W-S436N-H461Y-dG462-A463T-S465V (protein)
chain: B1 chain with S368P, V421E, H461Y, A463T, S465V
B9: I283T-P284D-N287P-S322T-N388M-C430N-L432F-L434W-S436N-H461T-dG462 (protein)
chain: B1 chain with S368P, V421E, H461T
B10: N388M-K394R-C430N-L432F-L434W-S436N-H444T (protein)
chain: B1 chain with T283I, D284P, P287N, T322S, S368P, K394R, V421E, H444T
B11: I283T-P284D-N287P-S322T-N388M-R422F-C430N-L432F-L434W-S436N-dG462-A463T (protein)
chain: B1 chain with S368P, V421E, R422F, A463T
B12: I283T-P284D-N287P-S322T-N388M-C430N-L432F-L434W-S436N-H461A-dG462-A463T (protein)
chain: B1 chain with S368P, V421E, H461A, A463T
B13: N388M-K394R-C430N-L432F-L434W-S436N-H444R (protein)
chain: B1 chain with T283I, D284P, P287N, T322S, S368P, K394R, V421E, H444R
B14: I283T-P284D-N287P-S322T-N388M-E421V-C430N-L432F-L434W-S436N-dG462-A463T (protein)
chain: B1 chain with S368P, A463T
B15: I283T-P284D-N287P-S322T-N388M-C430N-L432F-L434W-S436N-dG462-A463S (protein)
chain: B1 chain with S368P, V421E, A463S
B16: I283T-P284D-N287P-S322T-N388M-R422L-C430N-L432F-L434W-S436N-dG462 (protein)
chain: B1 chain with S368P, V421E, R422L
B17: I283T-P284D-N287P-S322T-N388M-C430N-L432F-L434W-S436N-H461A-dG462-S465V (protein)
chain: B1 chain with S368P, V421E, H461A, S465V
B18: I283T-P284D-N287P-S322T-N388M-E421V-R422F-C430N-L432F-L434W-S436N-H461T-dG462 (protein)
chain: B1 chain with S368P, R422F, H461T
B19: I283T-P284D-N287P-S322T-N388M-C430N-L432F-L434W-S436N-H461Y-dG462-A463T (protein)
chain: B1 chain with S368P, V421E, H461Y, A463T
B20: N388M-K394R-C430N-L432F-L434W-S436N-H444V (protein)
chain: B1 chain with T283I, D284P, P287N, T322S, S368P, K394R, V421E, H444V
B21: I283T-P284D-N287P-S322T-N388M-C430N-L432F-L434W-S436N-dG462-A463T-S465V (protein)
chain: B1 chain with S368P, V421E, A463T, S465V
B22: I283T-P284D-N287P-S322T-N388M-C430N-L432F-L434W-S436N-H461Y-dG462-S465V (protein)
chain: B1 chain with S368P, V421E, H461Y, S465V
B23: I283T-P284D-N287P-S322T-N388M-R422F-C430N-L432F-L434W-S436N-H461T-dG462 (protein)
chain: B1 chain with S368P, V421E, R422F, H461T
B24: I283T-P284D-N287P-S322T-N388M-R422F-C430N-L432F-L434W-S436N-H461V-dG462 (protein)
chain: B1 chain with S368P, V421E, R422F, H461V
B25: I283T-P284D-N287P-S322T-N388M-C430N-L432F-L434W-S436N-dG462-A463T (protein)
chain: B1 chain with S368P, V421E, A463T
B26: I283T-P284D-N287P-S322T-N388M-C430N-L432F-L434W-S436N-H461A-dG462 (protein)
chain: B1 chain with S368P, V421E, H461A
B27: I283T-P284D-N287P-S322T-N388M-E421V-C430N-L432F-L434W-S436N-H461V-dG462 (protein)
chain: B1 chain with S368P, H461V
B28: I283T-P284D-N287P-S322T-N388M-C430N-L432F-L434W-S436N-dG462-S465V (protein)
chain: B1 chain with S368P, V421E, S465V
B29: I283T-P284D-N287P-S322T-N388M-C430N-L432F-L434W-S436N-H461T-dG462-A463T (protein)
chain: B1 chain with S368P, V421E, H461T, A463T
B30: I283T-P284D-N287P-S322T-N388M-C430N-L432F-L434W-S436N-dG462-A463F (protein)
chain: B1 chain with S368P, V421E, A463F
B31: I283T-P284D-N287P-S322T-N388M-C430N-L432F-L434W-S436N-H461V-dG462-A463T-S465V (protein)
chain: B1 chain with S368P, V421E, H461V, A463T, S465V
B32: I283T-P284D-N287P-S322T-N388M-E421V-C430N-L432F-L434W-S436N-H461T-dG462 (protein)
chain: B1 chain with S368P, H461T
B33: I283T-P284D-N287P-S322T-N388M-C430N-L432F-L434W-S436N-H461A-dG462-S465I (protein)
chain: B1 chain with S368P, V421E, H461A, S465I
B34: I283T-P284D-N287P-S322T-N388M-E421V-R422F-C430N-L432F-L434W-S436N-H461V-dG462 (protein)
chain: B1 chain with S368P, R422F, H461V
B35: I283T-P284D-N287P-S322T-N388M-C430N-L432F-L434W-S436N-H461A-dG462-A463T-S465V (protein)
chain: B1 chain with S368P, V421E, H461A, A463T, S465V

system: 3-methylcrotonic acid; format: biochemical, Yersinia frederiksenii; set-up: key: “+” representing a low increase in activity; “++++” representing a high increase in activity

Row | Molecule | Activity relative to WT
1 | B1 | ++++
2 | B2 | ++++
3 | B3 | ++++
4 | B4 | ++++
5 | B5 | ++++
6 | B6 | ++++
7 | B7 | ++++
8 | B8 | ++++
9 | B9 | ++++
10 | B10 | +
11 | B11 | ++++
12 | B12 | ++++
13 | B13 | +
14 | B14 | ++++
15 | B15 | ++++
16 | B16 | ++++
17 | B17 | ++++
18 | B18 | ++++

Row | Molecule | Activity relative to WT
19 | B19 | ++++
20 | B20 | +
21 | B21 | ++++
22 | B22 | ++++
23 | B23 | ++++
24 | B24 | ++++
25 | B25 | ++++
26 | B26 | ++++
27 | B27 | ++++
28 | B28 | ++++
29 | B29 | ++++
30 | B30 | ++++
31 | B31 | ++++
32 | B32 | ++++
33 | B33 | ++++
34 | B34 | ++++
35 | B35 | ++++
